Here are results for ten molecules from patent US20140301945A1 (NEURIMMUNE, published 2014).

Assay [1] deals with T1, in vitro misfolded/aggregated human SOD1 (metal-catalyzed oxidation) (human, UniProt P00441 2-154, oxidized by metal-catalyzed oxidation (4 mM ascorbic acid, 0.2 mM CuCl2, 48 hours at 37 C); residues not stated).
T1 construct: also called Oxidized SOD1; in vitro aggregated human SOD1 dimers
Kind of assay: direct ELISA, in vitro aggregated human SOD1 coated at 34 µg/ml. On the technique in general: ELISA stands for enzyme-linked immunosorbent assay.

The target of assay [2] is T2, recombinant human SOD1 (biomol, Hamburg) (human, UniProt P00441 2-154, limits assumed).
T2 construct: Bought protein; also called recombinant human superoxide dismutase 1; Recombinant SOD1
T2 sequence (P00441 2-154 limits assumed): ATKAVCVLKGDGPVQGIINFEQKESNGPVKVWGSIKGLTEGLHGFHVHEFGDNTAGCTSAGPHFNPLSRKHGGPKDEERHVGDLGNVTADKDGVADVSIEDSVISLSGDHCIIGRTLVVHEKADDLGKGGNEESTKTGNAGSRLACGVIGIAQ
As to the kind of experiment: direct ELISA, recombinant SOD1 coated at 20 µg/ml.
Experimental: (§1) Primary antibodies were diluted to the indicated concentrations and incubated 1 h at RT. Binding was determined using either a donkey anti-human IgG Fcγ-specific antibody conjugated with HRP or a goat anti-mouse IgG (H+L)-specific antibody conjugated with HRP, followed by measurement of HRP activity in a standard colorimetric assay.
(§2) The EC₅₀ of the different human-derived SOD1-specific antibodies for native human SOD1 dimers, denatured/oxidized human SOD1 and recombinant SOD1 was determined by direct ELISA with coating of the different SOD1 species at 20 μg/ml concentration.

Assay [3] concerns the target T2, recombinant human SOD1 (biomol, Hamburg). As to the kind of experiment: direct ELISA, recombinant human SOD1 coated at 30 µg/ml.
Experimental: (§3) Binding was determined using either a goat anti-mouse IgG antibody (Jackson immunoResearch, Newmarket, UK) or a donkey anti-human IgGγ (Jackson immunoResearch, Newmarket, UK) antibody conjugated with HRP, followed by measurement of HRP activity in a standard colorimetric assay. The EC₅₀ values were estimated by a non-linear regression using GraphPad Prism (San Diego, USA) software.
For assay [4] the target is unchanged. As to the kind of experiment: direct ELISA, recombinant human SOD1 coated at 1 µg/ml.
Experimental: as §3
For assay [5] the target is unchanged. Kind of assay: direct ELISA, recombinant human SOD1 coated at 0.1 µg/ml.
Experimental: as §3
Assay [6] addresses T1, in vitro misfolded/aggregated human …. Kind of assay: direct ELISA, oxidized human SOD1 coated at 20 µg/ml.
Experimental: as §1, §2
For the next assay, the target named is T3, bovine serum albumin (bovine, UniProt P02769 25-607).
T3 construct: Control antigen in ELISA; also called BSA
T3 sequence (P02769 25-607 limits assumed): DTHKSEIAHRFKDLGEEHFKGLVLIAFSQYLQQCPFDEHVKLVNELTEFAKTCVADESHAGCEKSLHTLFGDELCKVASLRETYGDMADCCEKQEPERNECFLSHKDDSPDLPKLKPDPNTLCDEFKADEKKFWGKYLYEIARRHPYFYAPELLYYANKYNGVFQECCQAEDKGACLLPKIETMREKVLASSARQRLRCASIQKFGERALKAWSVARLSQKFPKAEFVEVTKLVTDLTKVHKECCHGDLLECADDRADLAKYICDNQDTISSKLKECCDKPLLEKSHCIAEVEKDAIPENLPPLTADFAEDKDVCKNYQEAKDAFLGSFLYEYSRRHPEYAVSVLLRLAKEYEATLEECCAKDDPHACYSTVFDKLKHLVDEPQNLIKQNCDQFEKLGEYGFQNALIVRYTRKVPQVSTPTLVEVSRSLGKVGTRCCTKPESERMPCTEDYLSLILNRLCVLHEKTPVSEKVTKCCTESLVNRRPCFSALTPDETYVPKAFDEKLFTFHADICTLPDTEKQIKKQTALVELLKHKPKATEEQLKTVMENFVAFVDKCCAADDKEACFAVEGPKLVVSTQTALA
As to the kind of experiment: direct ELISA, BSA coated at 3.3 µg/ml.

Assay [7] has as its target T2, recombinant human SOD1 (biomol, Hamburg). As to the kind of experiment: direct ELISA, recombinant human SOD1 coated at 3.3 µg/ml.
Experimental: Binding was determined using a donkey anti-human IgGγ antibody (Jackson immunoResearch, Newmarket, UK) conjugated with HRP, followed by measurement of HRP activity in a standard colorimetric assay.
The EC₅₀ values were estimated by a non-linear regression using GraphPad Prism (San Diego, USA) software.
Assay [8] addresses T4, in vitro denatured human SOD1 (human, UniProt P00441 2-154).
T4 construct: also called Denatured SOD1; unfolded SOD1
Kind of assay: direct ELISA, denatured human SOD1 coated at 20 µg/ml.
Experimental: as §1, §2

For assay [9], the target named is T2, recombinant human SOD1 (biomol, Hamburg). As to the kind of experiment: direct ELISA, recombinant human SOD1 coated at 10 µg/ml.
Experimental: as §3
Assay [10] deals with T5, wild type SOD1 from human erythrocytes (physiological dimers) (human, UniProt P00441 2-154).
T5 construct: Purified from human erythrocytes (Sigma-Aldrich); homodimer; control incubated in Tris acetate buffer without oxidants; also called Native SOD1; native human SOD1 dimers
T5 sequence (P00441 2-154 limits assumed): as the sequence (P00441 2-154 limits assumed) above
As to the kind of experiment: direct ELISA, native human SOD1 dimers coated at 20 µg/ml.
Experimental: as §1, §2

For assay [11], the target named is wild type SOD1 from human erythrocytes (physiological dimers) (human) (UniProt P00441). As to the kind of experiment: direct ELISA, native human SOD1 dimers coated at 20 µg/ml; Native SOD1 (not denatured, oxidized or recombinant).
wild type SOD1 from human erythrocytes (physiological dimers) (human), sequence (P00441 2-154 limits assumed): as above

T1 sequence (P00441 2-154 limits assumed): as above
T4 sequence (P00441 2-154 limits assumed): as above
Text for bovine serum albumin: Non-specific binding sites were blocked for 2 hr at RT with PBS containing 2% BSA (Sigma-Aldrich, Buchs, Switzerland) and 0.5% Tween20.

B1: NI-204.12G7 (antibody, human IgG1, V domains shown)
VH: EVQLVESGAEVKKPGASVTLSCKASGYTFTAYYIHWVRQAREQGLEWMGVINPSTGTTFYAQNFPDRVSVTRDTSTSTVFMELHNLKSEDTAVYYCARAISEHGSGSYSPYYWGQGTLVTVSS
VL: SYVLTQPPSVSVSLGQMAAITCSGEALPKKYGYWYQQKPGQVPVLLIYRDVERPSGVPDRFSGSSSGTMVTLTISGVQAEDEADYYCLSADSSGTWVFGGGTKLTVL
What is called EC50 is the concentration at which the effect is half-maximal. For B1, the EC50 in assay [1] was 3.6 nM; in assay [2], 0.06 nM; in assay [3] it was 0.36 nM; in [4], 3.1 nM; in assay [5], 75.9 nM; in assay [6], 0.6 nM. The EC50 in assay [7] was 0.4 nM; in [8], 0.07 nM; in assay [9], 0.39 nM; in assay [10], more than 40 nM. Also, the binding result with bovine serum albumin is “no binding”.

B2: NI-204.67E12 (antibody, human IgG1, V domains shown)
VH: EVQLLESGGGLIRPGGSLRLSCAASGFTFSNYAMGWVRQAPGKGLEWVSAISGNGGSTYYGGSVKGRFTISRDKSKNTLYLQMNNLRADDTAVYFCAKLEAVAPTLTLRYFKHWGKGTLVTVSS
VL: DIQMTQSPSTLSASVGDRVTITCRASQSISRWLAWYQQRPGRAPDLLIYDASNLESGVPSRFSGSGSGTEFTLTISSLQPGDFATYYCQQYYSYVYTFGQGTKLEIK
Take B2: the EC50 in assay [2] is 0.2 nM; in assay [6] it was 0.06 nM; in assay [8] it was 0.08 nM; in assay [10] it was 0.1 nM.

B3: NI-204.7B3 (antibody, human IgG1, V domains shown)
VH: EVQLVQSGGDIVQSGGSLRLSCAASGFVFSSNWMHWVRQRPGKGLEWISLINVDGRTTKYADSVKGRFTISRDNAKKTVYLQMDSLRAEDTAVYYCVKVEGLNWGPGTLVTVSS
VL: LPVLTQPPSVSVSPGQTARITCSGDELSKQYAYWYQKKSGQAPVMVVNEDTKRPPGIPERFSGSSSGTTSTLTISGVQAEDEADYYCQSADITGSWVFGGGTKLTVL
For the molecule B3, the EC50 in assay [2] was 42 nM; in assay [6], more than 100 nM; in [8], 50 nM; in [10] it was more than 100 nM.

B4: NI-204.9F6 (antibody, human IgG1, V domains shown)
VH: EVQLVESGGGLVQPGGSLRLSCAVSGFTFDTFAMSWVRQAPGKGLEWVSAITASSSKTYYADSVKGRFTISRDNSRNTVYLRLSSLRADDTAVYFCARPKGAHSGLYIESAFDLWGPGTMVTVSS
VL: SYVLTQPPSVSVSAGQTASITCSADMLGDTYVSWYQKRPGQSPVLLIYQDSKRPSEIPERFSGSSSEDTATLTITGTQALDEAAYYCQVWDRRTTTYVFGPGTEVTVL
notes: also called NI-209.9F6
As for B4, the EC50 in assay [1] was 127 nM; in assay [2] it was more than 100 nM; in assay [3], 117 nM; in [4], 134 nM; in [5], 451 nM; in [6] it was more than 100 nM. Also, the figures for the EC50 in assay [7], in [9] and in [10] were 105 nM, 148 nM and more than 100 nM, respectively. The binding result with bovine serum albumin is listed as “no binding”.

B5: NI-204.11F11 (antibody, human IgG1, V domains shown)
VH: EVQLVESGGGLVKPGGSLRLSCAASGLPFSKAWMSWVRQAPGKGLEWVGRIKSQADGGAIDYATSVNGRFTITRDDSKNTLYLQMTSLKTEDTAVYYCTPGIILRFLEGTLRGMDVWGQGTTVTVSS
VL: EIVLTQSPPTLSLSPGERATLSCRASQTVSKYLAWYQQKPGQAPRLLVYDTSNRAIGIPPRFSGSGSGTDFTLTISTLEPEDFALYYCQQRSNWPPTFGQGTRLEIK
As for B5, the EC50 was found to be 0.5 nM in assay [2], 0.4 nM in assay [6], 0.3 nM in assay [8] and 50 nM in assay [10].

B6: NI-204.10D12 (antibody, V domains shown)
VH: EVQLVESGGDLVRPGGSLRLSCVASGFTFSNYWMHWVRQAPGQRPVWVSRTNTDGRNTAYADYAKGRFTISRDNAKSTLYLQLNSLRAEDTAVYFCARLRRNVADQITHNYYMDVWGKGTLVTVSS
VL: EIVLTQSPGSLAVSLGERATINCKSSQTVLYNNKNYLAWYQQKPGQPPKLLISWASSRESGVPDRFSGSGSGTDFTLTISSLQAEDVAVYYCQHYYGTPVTFGGGTKVEIK
In the case of B6, the EC50 in [1] was determined as 15 nM; in assay [2], 7 nM; in assay [3] it was 35 nM; in assay [4], 81.4 nM; in assay [5] it was 606 nM; in assay [6], 6 nM. For the same molecule, the EC50 was 10 nM in assay [7], more than 100 nM in assay [11], 5 nM in assay [8] and 24 nM in assay [9]. Moreover, the binding result with bovine serum albumin is “no binding”.

B7: NI-204.7G5 (antibody, human IgG1, V domains shown)
VH: EVQLVESGGGVVQAGGSLRLSCVASGLTFSSYGMHWVRQAPGKGLEWVAVISYDGRSKFYADSVKGRFTISRDNSKNTLYLQMNSLRAEDAAVYYCANARVRDACSGTRCDKFGFYMDVWGKGTTVTVSS
VL: SYVLTQPPSVSVSPGQTARITCSGDALPKKYAYWYQQKSGQAPVLVIYEDIKRPSGIPERFSGSSSGTMATLTISGAQVEDEGDYYCYSADRSGNRWAFGGGTKLTVL
As for B7, the EC50 was 13 nM in assay [2], 5 nM in assay [6], 60 nM in [8] and more than 100 nM in assay [10].

B8: NI-204.25H3 (antibody, human IgG1, V domains shown)
VH: QVQLQESGPGLVKPSETLSLTCTVSGGSISSSYWSWIRQPPGQGLEWIGYIYYSGNTYYNPSLKSRVTISIDTSKTQFSLNLTSVSAADTAVYYCARDGIPGAIGMDVWGQGTTVTVSS
VL: QSVLTQPPSVSAAPGQKVNISCSGSSSNIGNNYVSWYQRLPGTAPKLLIYDNNKRPSGIPDRFSGSKSGTSATLGITGLQTGDGADYYCATWDKSLIAVVFGGGTKLTVL
On to B8, for which the EC50 in assay [2] is 1 nM; in assay [6], 2 nM; in assay [8] it was 4 nM; in assay [10], more than 100 nM.

B9: NI-204.34A3 (antibody, human IgG1, V domains shown)
VH: EVQLVESGGGLVKPGGSLRVSCDVSGQRLSKAWMNWVRQTPTRGLEWVGLIKRDADGGTTEFAAPVEGRFTISRDDIQNTMTLHMTRLRVDDTGVYYCVAGDIGCIKENCRWGEGTTVTVSS
VL: SYELTQPPSVSVSPGQTARITCSGDALPTKFAFWYQQKSGQAPVLVIYEDDKRPSGIPQRFSGSSSGTTATLTISGAQEEDDADYYCYSKDSTNVERVFGTGTKLSVL
Consider B9, for which the EC50 in assay [2] was 2 nM; in [6], 12 nM; in assay [8], 10 nM; in assay [10] it was more than 100 nM.

B10: NI-204.6H1 (antibody, human IgG1, V domains shown)
VH: QVQLQQWGAGRLRPSETLSLTCAVYGGSFNGYARTWIRQPPGKGLEWIGEIDHRENTNYNPSLKSRVTMSVDTSKNQFSLRLNSVTAADTAVYFCARGQKNAKDQHEGFRYWGRGTLVTVSS
VL: SYELTQPPSVSVSPGQTARITCSGDALPKQFAYWYQQKSGQAPKLVIFKDTERPSGIPERFSASSSGTKATLTISGVQAEDEADYYCQSADRTATSWVFGGGTKLTVL
With B10, the EC50 in assay [2] is 2 nM; in assay [6] it was 4 nM; in [8], 5 nM; in assay [10], more than 100 nM.
